Read-outs that look alike come from different tables or passages of the source.
What was measured:
[1] = target: T1, GPVI (hDID2) negative control peptide (UniProt Q9HCN6 21-205); assay: domain-deletion peptide ELISA
T1 construct: domain: hDID2; also called peptide negative control
T1 sequence (looked up): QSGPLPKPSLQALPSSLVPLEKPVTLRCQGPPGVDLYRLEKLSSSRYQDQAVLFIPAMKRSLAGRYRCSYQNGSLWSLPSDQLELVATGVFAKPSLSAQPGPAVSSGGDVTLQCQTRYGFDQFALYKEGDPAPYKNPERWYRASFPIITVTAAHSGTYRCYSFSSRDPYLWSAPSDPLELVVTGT
Method: Murine and human mAbs were used at concentrations of 1 and 10 μg/ml. MAb binding was detected by HRP-conjugated goat-anti-mouse IgG or HRP-conjugated goat-anti-human IgG. Absorbance at 492 nm was read on an microplate photometer (Multiskan E X, Thermo Scientific, Waltham, Mass.).

[2] = target: T2, integrin αVβ3 (vitronectin receptor) purified from human placenta (human, UniProt P06756 31-1048; P05106 27-788); assay: SPR, 120 s dissociation, average of three concentrations
T2 construct: mature; Amine-coupled to a CM5 chip at 480 RU for SPR; also called purified αVβ3; Millipore CC1018
T2 sequence (P06756 31-1048, form in doubt, chain 1 of 2): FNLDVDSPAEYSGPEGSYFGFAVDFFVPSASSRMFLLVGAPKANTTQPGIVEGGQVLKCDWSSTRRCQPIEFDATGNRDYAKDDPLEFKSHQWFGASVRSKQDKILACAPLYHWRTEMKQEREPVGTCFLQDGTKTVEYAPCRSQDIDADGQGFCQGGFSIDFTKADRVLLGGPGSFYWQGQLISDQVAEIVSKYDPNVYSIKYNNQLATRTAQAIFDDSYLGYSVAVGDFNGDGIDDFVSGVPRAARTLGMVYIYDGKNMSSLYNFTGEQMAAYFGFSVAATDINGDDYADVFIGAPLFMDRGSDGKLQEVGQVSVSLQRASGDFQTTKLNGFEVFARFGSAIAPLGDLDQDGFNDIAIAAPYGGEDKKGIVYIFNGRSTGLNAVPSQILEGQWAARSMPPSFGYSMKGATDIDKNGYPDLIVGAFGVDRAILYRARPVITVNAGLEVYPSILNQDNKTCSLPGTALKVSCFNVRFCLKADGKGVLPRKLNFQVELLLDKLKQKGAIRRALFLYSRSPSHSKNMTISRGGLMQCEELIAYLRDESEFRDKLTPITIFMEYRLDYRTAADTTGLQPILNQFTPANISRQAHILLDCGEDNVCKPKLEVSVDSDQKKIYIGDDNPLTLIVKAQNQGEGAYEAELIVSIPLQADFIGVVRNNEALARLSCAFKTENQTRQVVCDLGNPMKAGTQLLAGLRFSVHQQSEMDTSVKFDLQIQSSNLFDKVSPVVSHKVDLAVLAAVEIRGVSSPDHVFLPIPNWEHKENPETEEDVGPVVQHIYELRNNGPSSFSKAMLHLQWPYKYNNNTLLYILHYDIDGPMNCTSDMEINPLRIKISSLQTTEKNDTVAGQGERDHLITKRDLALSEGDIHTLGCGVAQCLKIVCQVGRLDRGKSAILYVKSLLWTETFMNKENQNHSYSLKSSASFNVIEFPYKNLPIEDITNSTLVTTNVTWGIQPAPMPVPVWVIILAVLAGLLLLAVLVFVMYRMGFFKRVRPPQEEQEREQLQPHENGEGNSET
T2 sequence (P05106 27-788, form in doubt, chain 2 of 2): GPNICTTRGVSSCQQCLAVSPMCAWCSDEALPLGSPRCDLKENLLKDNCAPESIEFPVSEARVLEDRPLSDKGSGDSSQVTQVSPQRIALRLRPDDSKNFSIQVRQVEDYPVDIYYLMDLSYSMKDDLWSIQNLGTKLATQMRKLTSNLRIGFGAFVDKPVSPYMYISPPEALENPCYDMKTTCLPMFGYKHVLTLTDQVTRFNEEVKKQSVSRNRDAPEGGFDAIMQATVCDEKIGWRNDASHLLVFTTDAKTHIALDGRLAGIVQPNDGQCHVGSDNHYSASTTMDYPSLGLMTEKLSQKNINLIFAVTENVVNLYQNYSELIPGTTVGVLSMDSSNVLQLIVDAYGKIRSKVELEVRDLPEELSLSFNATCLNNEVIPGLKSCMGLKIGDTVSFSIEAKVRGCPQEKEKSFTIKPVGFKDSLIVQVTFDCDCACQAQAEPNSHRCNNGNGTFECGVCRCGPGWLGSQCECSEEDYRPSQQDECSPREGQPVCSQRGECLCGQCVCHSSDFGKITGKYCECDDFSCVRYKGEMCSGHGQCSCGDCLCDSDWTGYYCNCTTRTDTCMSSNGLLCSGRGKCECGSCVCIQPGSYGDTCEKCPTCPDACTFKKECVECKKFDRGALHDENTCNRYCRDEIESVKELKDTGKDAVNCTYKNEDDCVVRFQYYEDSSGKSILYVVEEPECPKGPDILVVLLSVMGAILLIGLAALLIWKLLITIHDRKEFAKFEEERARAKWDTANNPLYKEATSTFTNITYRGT
Method: (§1) MAb samples were used in three different concentrations (20 μg/ml, 10 μg/ml and 5 μg/ml); the highest concentration is shown. Results are representative of the two independent experiments. […] Data presented are average RU generated by injection of three different concentrations of mAbs (20 μg/ml, 10 μg/ml and 5 g/ml). […] The percentage of antibody bound at the end of the dissociation phase was calculated by dividing the RU at the end of dissociation period by the RU at the end of association period multiplied by 100%. Data presented are average percentage calculated from three different concentrations for each mAb.
(§2) SPR technology was used to assess the binding properties of the mAbs (Biacore T200 instrument, Biacore AB, Uppsala, Sweden). […] The integrin αVβ3 was obtained from Millipore (cat. No: CC1018). The integrin αVβ3 was purified from human placenta by affinity chromatography using immobilized monoclonal antibodies to αVβ3 integrin. […] The purified βllbβ3 integrins (HPA-1a and HPA-1b antigen carrying versions) and αVβ3 were immobilized to the surface of a CM5 sensor chip on three different flow cells (FCs) at a density of 400, 340 and 480 response units (RU) respectively using standard amine coupling chemistry.

[3] = target: T3, purified integrin αIIbβ3 from HPA-1aa platelets (HPA-1a antigen carrying version) (human, UniProt P08514 32-1039; P05106 27-788); assay: as above
T3 construct: mature; Amine-coupled to a CM5 chip at 400 RU for SPR; also called αIIbβ3 (HPA-1a); αIIbβ3 from HPA-1aa individuals
T3 sequence (P08514 32-1039, form in doubt, chain 1 of 2): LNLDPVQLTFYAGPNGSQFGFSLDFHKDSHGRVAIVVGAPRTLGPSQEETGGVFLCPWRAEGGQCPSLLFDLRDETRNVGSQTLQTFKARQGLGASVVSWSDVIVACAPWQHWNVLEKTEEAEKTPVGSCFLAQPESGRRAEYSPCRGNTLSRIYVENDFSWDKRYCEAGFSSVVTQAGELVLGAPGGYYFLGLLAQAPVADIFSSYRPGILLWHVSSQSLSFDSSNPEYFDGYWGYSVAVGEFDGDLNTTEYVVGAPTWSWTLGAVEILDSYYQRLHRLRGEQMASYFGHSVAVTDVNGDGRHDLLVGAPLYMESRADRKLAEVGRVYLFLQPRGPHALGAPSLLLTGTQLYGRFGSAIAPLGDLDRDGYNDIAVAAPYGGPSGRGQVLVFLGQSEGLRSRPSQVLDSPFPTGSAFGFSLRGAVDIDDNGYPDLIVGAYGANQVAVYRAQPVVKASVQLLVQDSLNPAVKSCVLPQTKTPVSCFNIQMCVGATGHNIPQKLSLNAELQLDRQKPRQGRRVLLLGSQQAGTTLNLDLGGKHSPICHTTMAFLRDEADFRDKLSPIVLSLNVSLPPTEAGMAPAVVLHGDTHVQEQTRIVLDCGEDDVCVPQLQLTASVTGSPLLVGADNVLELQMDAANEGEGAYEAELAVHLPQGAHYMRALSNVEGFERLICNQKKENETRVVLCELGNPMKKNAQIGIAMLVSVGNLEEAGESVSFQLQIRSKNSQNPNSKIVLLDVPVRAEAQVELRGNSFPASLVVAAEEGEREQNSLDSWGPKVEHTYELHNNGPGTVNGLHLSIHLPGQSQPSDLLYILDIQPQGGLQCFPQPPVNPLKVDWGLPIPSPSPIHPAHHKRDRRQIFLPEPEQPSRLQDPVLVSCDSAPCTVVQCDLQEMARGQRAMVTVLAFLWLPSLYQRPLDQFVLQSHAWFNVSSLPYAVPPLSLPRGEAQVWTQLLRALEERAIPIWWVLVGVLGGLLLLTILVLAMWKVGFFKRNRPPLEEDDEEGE
T3 sequence (P05106 27-788, form in doubt, chain 2 of 2): as the sequence (P05106 27-788, form in doubt, chain 2 of 2) above
Method: as §1, §2

[4] = target: T2, integrin αVβ3 (vitronectin receptor) …; assay: SPR (Biacore T200), integrin amine-coupled to CM5 chip, antibody injected 120 s
Method: (§3) The percentage of antibody bound at the end of the dissociation phase was calculated by dividing the RU at the end of dissociation period by the RU at the end of association period multiplied by 100%. Data presented are average percentage calculated from three different concentrations for each mAb.
(§4) SPR technology was used to assess the binding properties of the mAbs (Biacore T200 instrument, Biacore AB, Uppsala, Sweden). […] The purified βllbβ3 integrins (HPA-1a and HPA-1b antigen carrying versions) and αVβ3 were immobilized to the surface of a CM5 sensor chip on three different flow cells (FCs) at a density of 400, 340 and 480 response units (RU) respectively using standard amine coupling chemistry. An FC treated with the same chemicals but without protein was used as a reference surface. Purified monoclonal IgG samples (various concentrations) were injected over the chip surface at a flow rate of 30 μl/min. An association step of 120 sec was followed by a dissociation step of 120 sec. Regeneration of the sensor chip surface was accomplished using 10 mM Glycine-HCl (pH 1.5). The experiments were performed at 25° C. The collected data were analysed using BiaEvaluation 2.0.1 software. […] All chemicals for the Biacore experiment were purchased from GE Healthcare.

[5] = target: T3, purified integrin αIIbβ3 from HPA-1aa …; assay: as above
Method: as §3, §4

[6] = target: T2, integrin αVβ3 (vitronectin receptor) …; assay: SPR (Biacore T200), integrin amine-coupled to CM5 chip, after 120 s dissociation
Method: as §1, §2

[7] = target: T3, purified integrin αIIbβ3 from HPA-1aa …; assay: as above
Method: as §1, §2

[8] = target: T1, GPVI (hDID2) negative control peptide; assay: domain-deletion peptide ELISA; remark: listed apart in the source
[9] = target: T4, integrin αIIbβ3 (glycoprotein IIbIIIa) bearing HPA-1a (Leu33) on intact HPA-1a-positive platelets (human, UniProt P08514 32-1039; P05106 27-788); assay: MAIPA inhibition assay on HPA-1aa platelets; blocked antibodies: polyclonal anti-HPA-1a IgG of 10 donor sera
T4 construct: whole, on cells; HPA-1ab platelets carry both allotypes; results on them are marked in the row; also called HPA-1aa platelets; HPA-1a homozygous platelets
T4 sequence (P08514 32-1039, chain 1 of 2): as the sequence (P08514 32-1039, form in doubt, chain 1 of 2) above
T4 sequence (P05106 27-788, chain 2 of 2): as the sequence (P05106 27-788, form in doubt, chain 2 of 2) above

B1: human HPA-1a-specific recombinant monoclonal antibody B2G1 (antibody, V domains shown)
VH: QVQLVQSGAEVKRPGAAVKVSCKASGYRFTGHYMHWVRQAPGQGLEWMGWINPNSGGTSYAQKFQGRVTMTRDTSISTAYMEMTRLRYDDTAVYYCAAGGLGGYYYYAMNIWGQGTTVTVSS
VL: QSALTQPASVSGSPGQSITISCTGTSSDVGGYNYVSWYQQHPGKAPKLMIYEVSNRPSGVSNRFSGSKSGNTASLTISGLQAEDEADYYCSSYTSSSTWVFGGGTKLTVL
notes: Generated by phage display and produced recombinantly as a human IgG detected by anti-human IgG; also called clone B2G1
- binding result [1]: no binding (tested: 10 µg/ml)
- % remaining bound at the end of the dissociation period [2]: 31.4%
- % remaining bound at the end of the dissociation period [3]: ~81%
- bound (RU) [4]: 11.2 RU
- bound (RU) [5]: 56.1 RU
- % dissociated [6]: 70.5%
- bound after dissociation (RU) [6]: 3.3 RU
- % dissociated [7]: 22%
- bound after dissociation (RU) [7]: 43.8 RU

B2: mouse monoclonal antibody SZ21 (antibody, V domains shown)
VH: LQESGPELVNPGASMKISCKASGYSFTGYTMNWVKQSHGKNLEWIGLINPYHGGSSYNQKFKGKATLTVDKSSSTAYMELLSLTSEDSAVYFCARRDANYVFFFDYWGQGTTVT
VL: ELTQSPALMSASPGEKVTMTCSASSGVSYIHWYQQKSGTSPKRWIYDTSKLASGVPARFSGSGSGTSYSLTISSMEAEDAATYYCQQWSSKPPTFGGGTKLE
notes: Bought murine mAb; variable regions as in Genebank AF354053 and AF354054 (the printed entries look truncated at both ends); also called clone SZ21; anti-β3 mAb (clone SZ21)
- binding result [8]: no binding (tested: 10 µg/ml)

B3: mAb 26.4 F(ab')2 fragment (other)
VH: QVQLQQSGPGLVKPSQTLSLTCAISGDSVSSNSAAWNWIRQSPSRGLEWLGRTYFRSNWYNDYAASVKSRITINQDTSKNQLSLQLNSVTPEDTAMYYCARDGAWGGSSWWPGLPHHYYSGMDVWGQGTTVTVSS
VL: EIVLTQSPATLSLSPGERATLSCRASQSVSSYLAWYQQKPGQAPRLLIYDASKRATGIPARFSGSGSGTDFSLTIRSLEPEDFAVYYCQQRSDWQGLTFGGGTKVEIK
- IC50 (read off the curve) [9]: ~5 µg/50 µl

B4: recombinant monoclonal antibody 26.4 IgG1 (antibody)
heavy: not shown
light: EIVLTQSPATLSLSPGERATLSCRASQSVSSYLAWYQQKPGQAPRLLIYDASKRATGIPARFSGSGSGTDFSLTIRSLEPEDFAVYYCQQRSDWQGLTFGGGTKVEIKRTVAAPSVFIFPPSDEQLKSGTASVVCLLNNFYPREAKVQWKVDNALQSGNSQESVTEQDSKDSTYSLSSTLTLSKADYEKHKVYACEVTHQGLSSPVTKSFNRGEC
notes: also called 26.4G1
- binding result [1]: no binding (tested: 10 µg/ml)
- % remaining bound at the end of the dissociation period [2]: 66.8%
- % remaining bound at the end of the dissociation period [3]: ~81%
- bound (RU) [4]: 18.8 RU
- bound (RU) [5]: 63.1 RU
- % dissociated [6]: 35.1%
- bound after dissociation (RU) [6]: 12.2 RU
- % dissociated [7]: 21.4%
- bound after dissociation (RU) [7]: 49.6 RU
